B1: FAM50A (parent)
chain: HIFPASRWEPYDPEKKWDKYTIR

Variants of: B1
Experiment: protein stability index of a GFP-peptide fusion (GPS, HEK-293T) (PSI 1-6); higher = more stable
Settings: c terminus: native
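Also: lentivirally expressed fusions sorted by FACS into six bins by GFP to DsRed ratio, PSI derived from sequencing read proportions per bin multiplied by bin number.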

Protein stability index of substitutions, site by site:
K19: M 1.9; T 3.02; A 2.18; D 2.24; H 2.03; S 1.89; I 2.22
P10: E 2.32; R 2.7; C 3; N 2.02; M 1.82; L 1.8; H 2.88; A 1.71; T 2.3
R23: W 1.72; C 2.08; Y 2.1; H 2.2; G 2.59; N 2.27
K15: C 3.43; M 2.16; G 2.27; E 1.66; W 3; L 1.57; N 1.71; F 2.2; S 2.67
P4: K 2; H 2.36; Q 1.77; C 1.69; T 3.16; V 1.79; R 2.13
F3: P 2.62; M 1.74; A 3.12; I 2.57; N 3.25; L 2.63; G 4.42; H 1.96
I2: L 3.1; K 2.48; W 2.16; P 2.15; Q 3.11; V 2.88; R 3.2; F 2.33; A 2.71
A5: G 2.14; L 1.58; T 2.06; H 1.8
D18: K 3.01; P 2.99; M 1.92; C 2.61; Q 2; H 2.58
T21: N 2.54; M 2.08; G 2.38; W 2.86; K 1.93; I 1.74; P 2.36; Q 2.18; H 2.2
I22: K 3.3; Q 2.91; H 2.19; W 2.06; A 2.03; P 3.88; T 2.62; V 2.75; G 2.29
Y20: T 3.05; L 2.26; Q 2.48; P 2.93; I 1.49; C 1.77; N 2.73
K16: E 2.79; P 2.48; I 1.54; L 2.63; Q 2.79; M 1.71
D12: R 2.07; V 3.47; F 2.48; L 1.83; E 2.15; T 2.11; P 1.69; Q 2.19; I 1.79; K 2.73; C 1.89; N 2.08
E9: I 3.95; N 2.05; S 2.76; Y 1.51; C 3.21
W8: L 3.38; S 3.62; C 3.11; R 3.54; G 3.72; I 3.38; E 3.6; D 3.54; A 3.29
E14: I 2.68; V 1.59; R 2.49; Y 2.68; L 2.1; S 2.65; C 2; D 2.02; G 2.5
W17: G 2.43; Q 3.14; H 2.42; F 2.9; T 2.25; I 2.64; E 3.48
H1: Y 1.69; P 2.83; S 2.04; W 1.46
Y11: L 2.27; Q 2.28; D 2.74; G 3.04; V 2.67; W 2.11
R7: V 2.48; T 2.66; S 3.31; M 2.6; C 1.85; I 1.48; N 2.38; H 2; L 1.21
P13: V 2.72; Y 2.13; S 2.1; N 2.05; D 1.75; R 2; G 2.03; Q 1.74
S6: D 1.87; G 2.98
